The record followed here is FireProtDB (doi:10.1021/bi060907v).

What is called Tm is the temperature at the midpoint of the melting transition.

The chains are these.
B1: Ribonuclease HII, O74035 (parent)
chain: MKIAGIDEAGRGPVIGPMVIAAVVVDENSLPKLEELKVRDSKKLTPKRREKLFNEILGVLDDYVILELPPDVIGSREGTLNEFEVENFAKALNSLKVKPDVIYADAADVDEERFARELGERLNFEAEVVAKHKADDIFPVVSAASILAKVTRDRAVEKLKEEYGEIGSGYPSDPRTRAFLENYYREHGEFPPIVRKGWKTLKKIAEKVESEKKAEERQATLDRYFRKV

Variants of B1 are the subject of the data set. The settings on record: Thermococcus kodakarensis (strain ATCC BAA-918 / JCM 12380 / KOD1), pH 9, reversible: Yes, structure 1IO2, whole UniProt chain shown; for ddG of mutation (higher = less stable) / denaturant m value / denaturant midpoint (higher = more stable): 50 °C, GdnHCl, CD, Tris-HCl 20 mM; for Tm / change of melting temperature, mutant - wild type (higher = more stable) / unfolding enthalpy (calorimetric) / unfolding enthalpy (van 't Hoff): Thermal, DSC, Gly-NaOH 20 mM.

In the case of MKIAGIDAAGRGPVIGPMVIAAVVVDENSLPKLEELKVRDSKKLTPKRREKLFNEILGVLDDYVILELPPDVIGSREGTLNEFEVENFAKALNSLKVKPDVIYADAADVDEERFARELGERLNFEAEVVAKHKADDIFPVVSAASILAKVTRDRAVEKLKEEYGEIGSGYPSDPRTRAFLENYYREHGEFPPIVRKGWKTLKKIAEKVESEKKAEERQATLDRYFRKV [E8A], the “ddG of mutation (higher = less stable)” value was -2.65 kcal/mol, the denaturant m value came to 4.73 kcal/mol/M, the “denaturant midpoint (higher = more stable)” value (“denaturant midpoint” for short) was 2.39 M and the midpoint of thermal melting (Tm) worked out at 93.2 °C. The “change of melting temperature, mutant - wild type (higher = more stable)” value (from here on “change of melting temperature, mutant”) came out at 8 °C; the “unfolding enthalpy (calorimetric)” value was 171 kcal/mol; the “unfolding enthalpy (van 't Hoff)” value amounted to 150 kcal/mol.

Turning to MKIAGIDQAGRGPVIGPMVIAAVVVDENSLPKLEELKVRDSKKLTPKRREKLFNEILGVLDDYVILELPPDVIGSREGTLNEFEVENFAKALNSLKVKPDVIYADAADVDEERFARELGERLNFEAEVVAKHKADDIFPVVSAASILAKVTRDRAVEKLKEEYGEIGSGYPSDPRTRAFLENYYREHGEFPPIVRKGWKTLKKIAEKVESEKKAEERQATLDRYFRKV [E8Q], the “ddG of mutation (higher = less stable)” value was -0.6 kcal/mol, the denaturant m value was determined as 3.73 kcal/mol/M, the “denaturant midpoint” value turned out to be 1.97 M and the Tm worked out at 85.9 °C. The “change of melting temperature, mutant” value came to 0.6 °C; the “unfolding enthalpy (calorimetric)” value came to 158 kcal/mol; the “unfolding enthalpy (van 't Hoff)” value turned out to be 163 kcal/mol.

In the case of MKIAGIDEAGRGPVIGPMVIAAVVVDENSLPKLEELKVRDSKKLTPKRREKLFNEILGVLDDYVILELPPDVIGSREGTLNEFEVENFAKALNSLKVKPDVIYADAADVDEERFARELGERLNFEAEVVAKHKAADIFPVVSAASILAKVTRDRAVEKLKEEYGEIGSGYPSDPRTRAFLENYYREHGEFPPIVRKGWKTLKKIAEKVESEKKAEERQATLDRYFRKV [D135A], the “ddG of mutation (higher = less stable)” value was -2.56 kcal/mol, the denaturant m value worked out at 4.85 kcal/mol/M, the “denaturant midpoint” value was determined as 2.37 M and the melting temperature (Tm) amounted to 90.4 °C. In addition, the “change of melting temperature, mutant” value is 5.2 °C; the “unfolding enthalpy (calorimetric)” value stood at 147 kcal/mol; the “unfolding enthalpy (van 't Hoff)” value came to 153 kcal/mol.

For MKIAGIDEAGRGPVIGPMVIAAVVVDENSLPKLEELKVRDSKKLTPKRREKLFNEILGVLDDYVILELPPDVIGSREGTLNEFEVENFAKALNSLKVKPDVIYAAAADVDEERFARELGERLNFEAEVVAKHKADDIFPVVSAASILAKVTRDRAVEKLKEEYGEIGSGYPSDPRTRAFLENYYREHGEFPPIVRKGWKTLKKIAEKVESEKKAEERQATLDRYFRKV [D105A], the “ddG of mutation (higher = less stable)” value was -1.58 kcal/mol, the denaturant m value came out at 5.66 kcal/mol/M, the “denaturant midpoint” value was found to be 2.17 M and the midpoint of thermal melting (Tm) worked out at 89.4 °C. For the same variant, the “change of melting temperature, mutant” value is 4.2 °C; the “unfolding enthalpy (calorimetric)” value amounted to 170 kcal/mol; the “unfolding enthalpy (van 't Hoff)” value is 162 kcal/mol.

On to MKIAGINEAGRGPVIGPMVIAAVVVDENSLPKLEELKVRDSKKLTPKRREKLFNEILGVLDDYVILELPPDVIGSREGTLNEFEVENFAKALNSLKVKPDVIYADAADVDEERFARELGERLNFEAEVVAKHKADDIFPVVSAASILAKVTRDRAVEKLKEEYGEIGSGYPSDPRTRAFLENYYREHGEFPPIVRKGWKTLKKIAEKVESEKKAEERQATLDRYFRKV [D7N], for which the “ddG of mutation (higher = less stable)” value is -1.67 kcal/mol, the denaturant m value is 4.45 kcal/mol/M, the “denaturant midpoint” value was 2.18 M and the melting temperature (Tm) amounted to 88.3 °C. Also, the “change of melting temperature, mutant” value stood at 3.1 °C; the “unfolding enthalpy (calorimetric)” value was determined as 137 kcal/mol; the “unfolding enthalpy (van 't Hoff)” value stood at 163 kcal/mol.
